In patent US20050268353A1:

Tests used:
[1] = target: Midgut brush border membranes of Helicoverpa armigera larvae; assay: 125I-labelled HaSV particles with midgut brush border membranes boiled before the incubation (control)
[2] = target: Midgut brush border membranes of Helicoverpa armigera larvae; assay: 125I-labelled HaSV particles (103,000 cpm) incubated 1 h with midgut brush border membranes, pelleted, washed three times, gamma counting
[3] = target: Midgut brush border membranes of Helicoverpa armigera larvae; assay: 125I-labelled HaSV particles with midgut brush border membranes preincubated 1 h with unlabelled HaSV (self-competition)

Helicoverpa armigera stunt virus (HaSV) particles (from UniProt Q82462 1-647)
cpm remaining with the membranes after washing [1]: 1700 cpm | cpm remaining with the membranes after washing [2]: 8500 cpm | cpm remaining with the membranes after washing [3]: 2100 cpm
